Publication PMC3441751, “Structure and Assembly of a Trans-Periplasmic Channel for Type IV Pili in Neisseria meningitidis” (PLoS Pathogens, 2012)

Biological target: the molecule itself
Test: cryo-EM structure; single particle averaging of unstained frozen-hydrated PilQ complexes in a dodecyl maltoside-containing buffer at 1 mg/ml; 25,303 particles; C12 symmetry

B1: PilQ dodecamer (complete N. meningitidis PilQ oligomer) (natural protein)
chain: GNITDIKVSSLPNKQKIVKVSFDKEIVNPTGFVTSSPARIALDFEQTGISMDQQVLEYADPLLSKISAAQNSSRARLVLNLNKPGQYNTEVRGNKVWIFINESDDTVSAPARPAVKAAPAAPAKQQAAAPSTKSAVSVSEPFTPAKQQAAAPFTESVVSVSAPFSPAKQQAAASAKQQAAAPAKQQAAAPAKQQAAAPAKQTNIDFRKDGKNAGIIELAALGFAGQPDISQQHDHIIVTLKNHTLPTTLQRSLDVADFKTPVQKVTLKRLNNDTQLIITTAGNWELVNKSAAPGYFTFQVLPKKQNLESGGVNNAPKTFTGRKISLDFQDVEIRTILQILAKESGMNIVASDSVNGKMTLSLKDVPWDQALDLVMQARNLDMRQQGNIVNIAPRDELLAKDKALLQAEKDIADLGALYSQNFQLKYKNVEEFRSILRLDNADTTGNRNTLISGRGSVLIDPATNTLIVTDTRSVIEKFRKLIDELDVPAQQVMIEARIVEAADGFSRDLGVKFGATGKKKLKNDTSAFGWGVNSGFGGDDKWGAETKINLPITAAANSISLVRAISSGALNLELSASESLSKTKTLANPRVLTQNRKEAKIESGYEIPFTVTSIANGGSSTNTELKKAVLGLTVTPNITPDGQIIMTVKINKDSPAQCASGNQTILCISTKNLNTQAMVENGGTLIVGGIYEEDNGNTLTKVPLLGDIPVIGNLFKTRGKKTDRRELLIFITPRIMGTAGNSLRY
notes: PilQ secretin, Neisseria meningitidis; The source of the sample is in Text S1; also called entire PilQ dodecamer; intact PilQ oligomer; source: PilQ complexes resuspended in a dodecyl maltoside-containing buffer at 1 mg/ml; copies: 12
With B1 the “stoichiometry N” value was 12.
